{"source": "patent US20120052569", "proteins": {"B1": {"name": "Tobacco etch virus (TEV) protease (protein)", "chain": "GESLFKGPRDYNPISSTICHLTNESDGHTTSLYGIGFGPFIITNKHLFRRNNGTLLVQSLHGVFKVKNTTTLQQHLIDGRDMIIIRMPKDFPPFPQKLKFREPQREERICLVTTNFQTKSMSSMVSDTSCTFPSSDGIFWKHWIQTKDGQCGSPLVSTRDGFIVGIHSASNFTNTNNYFTSVPKNFMELLTNQEAQQWVSGWRLNADSVLWGGHKVFMSKPEEPFQPVKEATQLMNELVYSQ"}}, "key": {"[1]": {"biological_target": "His-eTEV-Fn fusion protein, Ala mutant G8, P02751", "sequence (P02751 whole entry, looked up, change not shown, the tested form may be a part)": "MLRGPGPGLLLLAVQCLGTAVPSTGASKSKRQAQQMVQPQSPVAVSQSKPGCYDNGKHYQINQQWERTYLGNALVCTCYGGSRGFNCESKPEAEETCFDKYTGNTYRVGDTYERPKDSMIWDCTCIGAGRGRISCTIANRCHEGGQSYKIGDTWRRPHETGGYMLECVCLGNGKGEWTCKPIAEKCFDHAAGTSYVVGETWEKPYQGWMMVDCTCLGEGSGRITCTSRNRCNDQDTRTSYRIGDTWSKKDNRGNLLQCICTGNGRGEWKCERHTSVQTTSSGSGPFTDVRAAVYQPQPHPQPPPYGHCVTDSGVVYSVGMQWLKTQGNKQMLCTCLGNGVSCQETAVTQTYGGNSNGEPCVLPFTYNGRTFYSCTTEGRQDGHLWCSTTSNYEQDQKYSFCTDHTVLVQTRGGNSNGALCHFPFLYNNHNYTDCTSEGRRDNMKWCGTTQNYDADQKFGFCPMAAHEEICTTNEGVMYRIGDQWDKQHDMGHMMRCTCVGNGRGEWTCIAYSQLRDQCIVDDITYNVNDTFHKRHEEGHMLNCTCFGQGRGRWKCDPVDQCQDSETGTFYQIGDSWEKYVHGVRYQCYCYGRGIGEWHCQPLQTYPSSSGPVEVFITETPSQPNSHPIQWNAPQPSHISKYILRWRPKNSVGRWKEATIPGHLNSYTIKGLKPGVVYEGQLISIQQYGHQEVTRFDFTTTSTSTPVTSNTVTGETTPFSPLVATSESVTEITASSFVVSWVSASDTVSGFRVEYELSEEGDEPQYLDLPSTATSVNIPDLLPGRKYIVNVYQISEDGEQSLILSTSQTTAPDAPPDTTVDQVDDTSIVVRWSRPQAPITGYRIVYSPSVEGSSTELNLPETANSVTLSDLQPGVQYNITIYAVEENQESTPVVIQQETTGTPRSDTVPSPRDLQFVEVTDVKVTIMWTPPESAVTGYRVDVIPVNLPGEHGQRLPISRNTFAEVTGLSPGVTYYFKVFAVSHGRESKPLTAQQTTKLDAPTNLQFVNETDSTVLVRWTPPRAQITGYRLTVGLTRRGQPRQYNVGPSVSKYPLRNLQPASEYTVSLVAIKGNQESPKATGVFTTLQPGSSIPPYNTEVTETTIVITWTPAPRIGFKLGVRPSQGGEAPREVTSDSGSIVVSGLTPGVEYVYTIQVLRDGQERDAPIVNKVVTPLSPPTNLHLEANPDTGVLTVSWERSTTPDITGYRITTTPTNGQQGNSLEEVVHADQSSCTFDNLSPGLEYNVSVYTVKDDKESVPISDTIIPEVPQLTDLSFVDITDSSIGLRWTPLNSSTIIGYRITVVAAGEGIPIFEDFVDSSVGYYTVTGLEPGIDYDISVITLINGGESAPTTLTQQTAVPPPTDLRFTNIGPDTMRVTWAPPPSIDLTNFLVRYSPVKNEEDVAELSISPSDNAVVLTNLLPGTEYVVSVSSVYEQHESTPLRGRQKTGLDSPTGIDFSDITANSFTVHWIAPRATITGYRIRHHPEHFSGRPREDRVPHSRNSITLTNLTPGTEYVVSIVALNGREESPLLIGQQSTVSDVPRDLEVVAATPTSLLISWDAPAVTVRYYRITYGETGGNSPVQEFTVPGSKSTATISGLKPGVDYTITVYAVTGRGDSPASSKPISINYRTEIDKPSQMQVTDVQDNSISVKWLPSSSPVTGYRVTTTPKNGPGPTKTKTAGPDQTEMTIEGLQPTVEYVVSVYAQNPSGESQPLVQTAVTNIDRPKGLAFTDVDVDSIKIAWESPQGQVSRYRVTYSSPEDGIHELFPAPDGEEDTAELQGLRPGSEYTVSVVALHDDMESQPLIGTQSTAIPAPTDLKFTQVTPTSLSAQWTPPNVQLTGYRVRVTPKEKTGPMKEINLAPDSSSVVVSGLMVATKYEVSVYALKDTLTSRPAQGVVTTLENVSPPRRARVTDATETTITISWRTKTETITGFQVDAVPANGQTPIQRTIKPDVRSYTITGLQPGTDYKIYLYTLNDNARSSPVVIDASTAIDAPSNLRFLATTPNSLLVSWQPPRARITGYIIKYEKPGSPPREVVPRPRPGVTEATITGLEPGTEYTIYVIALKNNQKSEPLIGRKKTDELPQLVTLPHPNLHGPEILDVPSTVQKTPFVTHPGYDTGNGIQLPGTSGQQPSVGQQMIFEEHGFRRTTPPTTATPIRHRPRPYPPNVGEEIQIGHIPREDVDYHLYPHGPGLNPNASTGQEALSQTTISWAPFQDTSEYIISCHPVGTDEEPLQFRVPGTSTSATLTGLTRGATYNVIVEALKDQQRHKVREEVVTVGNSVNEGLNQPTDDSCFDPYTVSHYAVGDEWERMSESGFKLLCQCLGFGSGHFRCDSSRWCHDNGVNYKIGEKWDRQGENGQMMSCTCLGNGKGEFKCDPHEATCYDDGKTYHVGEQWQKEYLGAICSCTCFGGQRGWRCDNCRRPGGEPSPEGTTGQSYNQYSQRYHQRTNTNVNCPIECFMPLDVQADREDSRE"}, "[2]": {"biological_target": "His-eTEV-Fn fusion protein, Ala mutant Y5, P02751", "sequence (P02751 whole entry, looked up, change not shown, the tested form may be a part)": "as above"}, "[3]": {"biological_target": "His-eTEV-Fn fusion protein (wild type), P02751", "sequence (P02751 other isoform, or with tags, fused parts or gaps)": "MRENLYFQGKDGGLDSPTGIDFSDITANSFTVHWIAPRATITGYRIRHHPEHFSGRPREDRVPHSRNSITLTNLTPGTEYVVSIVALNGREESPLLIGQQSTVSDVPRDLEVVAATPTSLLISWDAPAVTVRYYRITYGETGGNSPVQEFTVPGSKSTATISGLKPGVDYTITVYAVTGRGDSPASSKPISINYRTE"}, "[4]": {"biological_target": "His-eTEV-Fn fusion protein, Ala mutant F6, P02751", "sequence (P02751 whole entry, looked up, change not shown, the tested form may be a part)": "as the sequence (P02751 whole entry, looked up, change not shown, the tested form may be a part) above"}, "[5]": {"biological_target": "His-eTEV-Fn fusion protein, Ala mutant E2, P02751", "sequence (P02751 whole entry, looked up, change not shown, the tested form may be a part)": "as above"}, "[6]": {"biological_target": "His-eTEV-Fn fusion protein, Ala mutant D10, P02751", "sequence (P02751 whole entry, looked up, change not shown, the tested form may be a part)": "as above"}, "[7]": {"biological_target": "His-eTEV-Fn fusion protein, Ala mutant K9, P02751", "sequence (P02751 whole entry, looked up, change not shown, the tested form may be a part)": "as above"}, "W tag fused GFPUV": {"biological_target": "T1, W tag fused GFPUV", "T1 chain": "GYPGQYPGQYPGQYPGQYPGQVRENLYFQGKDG"}, "[8]": {"biological_target": "His-eTEV-Fn fusion protein, Ala mutant R1, P02751", "sequence (P02751 whole entry, looked up, change not shown, the tested form may be a part)": "as the sequence (P02751 whole entry, looked up, change not shown, the tested form may be a part) above"}, "[9]": {"biological_target": "His-eTEV-Fn fusion protein, Ala mutant G11, P02751", "sequence (P02751 whole entry, looked up, change not shown, the tested form may be a part)": "as the sequence (P02751 whole entry, looked up, change not shown, the tested form may be a part) above"}, "[10]": {"biological_target": "His-eTEV-Fn fusion protein, Ala mutant Q7, P02751", "sequence (P02751 whole entry, looked up, change not shown, the tested form may be a part)": "as the sequence (P02751 whole entry, looked up, change not shown, the tested form may be a part) above"}, "[11]": {"biological_target": "His-eTEV-Fn fusion protein, Ala mutant L4, P02751", "sequence (P02751 whole entry, looked up, change not shown, the tested form may be a part)": "as the sequence (P02751 whole entry, looked up, change not shown, the tested form may be a part) above"}, "[12]": {"biological_target": "His-eTEV-Fn fusion protein, Ala mutant M0, P02751", "sequence (P02751 whole entry, looked up, change not shown, the tested form may be a part)": "as the sequence (P02751 whole entry, looked up, change not shown, the tested form may be a part) above"}, "[13]": {"biological_target": "His-eTEV-Fn fusion protein, Ala mutant N3, P02751", "sequence (P02751 whole entry, looked up, change not shown, the tested form may be a part)": "as the sequence (P02751 whole entry, looked up, change not shown, the tested form may be a part) above"}}}
{"protein": "B1", "values": [{"measurement": "cleavage by TEV protease (SDS electrophoresis, 24 kDa to 20 kDa shift)", "setting": "[1]", "result": "the other residues are substitutable with Ala"}, {"measurement": "cleavage by TEV protease (SDS electrophoresis, 24 kDa to 20 kDa shift)", "setting": "[2]", "result": "the 4th, 5th and 7th amino acids (namely, Leu, Tyr and Gln) are essential for the substrate of TEV protease"}, {"measurement": "cleavage by TEV protease (SDS electrophoresis, 24 kDa to 20 kDa shift)", "setting": "[3]", "result": "The eTEV peptide is recognized and cleaved by TEV protease."}, {"measurement": "cleavage by TEV protease (SDS electrophoresis, 24 kDa to 20 kDa shift)", "setting": "[4]", "result": "the other residues are substitutable with Ala"}, {"measurement": "cleavage by TEV protease (SDS electrophoresis, 24 kDa to 20 kDa shift)", "setting": "[5]", "result": "substitution of Ala for Glu at residue 2 gives no significant change in cleavage"}, {"measurement": "cleavage by TEV protease (SDS electrophoresis, 24 kDa to 20 kDa shift)", "setting": "[6]", "result": "the other residues are substitutable with Ala"}, {"measurement": "cleavage by TEV protease (SDS electrophoresis, 24 kDa to 20 kDa shift)", "setting": "[7]", "result": "the other residues are substitutable with Ala"}, {"measurement": "cleavage by TEV protease", "setting": "W tag fused Fn, P02751", "result": "the above-mentioned W tag fusion proteins, like single tag fusion proteins, can be used ... for cleavage by TEV protease"}, {"measurement": "cleavage by TEV protease", "setting": "W tag fused GFPUV", "result": "the above-mentioned W tag fusion proteins, like single tag fusion proteins, can be used ... for cleavage by TEV protease"}, {"measurement": "cleavage by TEV protease (SDS electrophoresis, 24 kDa to 20 kDa shift)", "setting": "[8]", "result": "the other residues are substitutable with Ala"}, {"measurement": "cleavage by TEV protease (SDS electrophoresis, 24 kDa to 20 kDa shift)", "setting": "[9]", "result": "the other residues are substitutable with Ala"}, {"measurement": "cleavage by TEV protease (SDS electrophoresis, 24 kDa to 20 kDa shift)", "setting": "[10]", "result": "the 4th, 5th and 7th amino acids (namely, Leu, Tyr and Gln) are essential for the substrate of TEV protease"}, {"measurement": "cleavage by TEV protease (SDS electrophoresis, 24 kDa to 20 kDa shift)", "setting": "[11]", "result": "the 4th, 5th and 7th amino acids (namely, Leu, Tyr and Gln) are essential for the substrate of TEV protease"}, {"measurement": "cleavage by TEV protease (SDS electrophoresis, 24 kDa to 20 kDa shift)", "setting": "[12]", "result": "the other residues are substitutable with Ala"}, {"measurement": "cleavage by TEV protease (SDS electrophoresis, 24 kDa to 20 kDa shift)", "setting": "[13]", "result": "the other residues are substitutable with Ala"}]}
